Measurements published in patent US12371675B2, “Process and microorganism for synthesis of adipic acid from carboxylic acids” (THE GOVERNING COUNCIL OF THE UNIVERSITY OF TORONTO, priority 2015, dated 2025).
Several values for one entry are separate records, joined by “and”; a condition that tells them apart may be missing. Equal entries are not always repeated.

Key:
[1] = In vitro biotransformation by CARs coupled with aldehyde reductase PP_3370; assay type: biochemical; conditions: Table 12 title: 10 mM adipic acid (12 h) in vitro, CARs coupled with PP3370
[2] = In vivo whole cell biotransformation by E. coli expressing CARs; assay type: cell-based; conditions: 24 h; for In vivo conversion efficiency (%) to: 1,4-butanediol: 10 mM 4-hydroxybutyric acid; for In vivo conversion efficiency (%) to: 1,6-hexanediol / In vivo conversion efficiency (%) to: 6-hydroxyhexanoic acid: 10 mM adipic acid
Method: E. coli cells expressing recombinant CARs with BSU03570 phosphopantetheinyl transferase were grown on LB media with […], supplemented with 2% glycerol aerobically on 37° C., until the culture optical density (OD 600 nm) reached 0.6-0.8. At this point protein expression was induced with 0.4 mM IPTG and substrate (adipic acid or 4-hydroxybutyric acid) for final 10 mM concentration was added. Samples were taken at 6 h, 24 h and 48 h, centrifuged, supernatant was filtered through 10 kDa centrifugal filters. Products were analyzed with HPLC or LC-MS. Negative control experiments were performed using E. coli cells harboring empty plasmids. All results of in vivo experiments are means from at least two independent determinations.

[3] = CAR reductase activity, NADPH oxidation at 340 nm; assay type: biochemical; conditions: ND = no activity was detected
Method: Reductase activity was measured spectrophotometrically by following the oxidation of NADPH depletion at 340 nm.
It has been shown that the N. iowensis CAR has a broad substrate range, though its maximal activity was usually observed with aromatic substrates such as benzoic and cinnamic acids. CARs gene sequences homologues to the N. iowensis CAR (Uniprot number: Q6RKB1), were selected from GenBank database. Based on presence of adenylation (AMP-binding PF00501) and reduction (NAD-binding PF07993) domains accompanied with phosphopantetheinyl binding motif (PF00530) 13 CAR genes (mostly from Mycobacterium) were cloned and expressed in E. coli. (Table 4). As CAR activation enzymes, phosphopantetheinyl transferases (PPTs) from E. coli (P19925) and Bacillus subtilis (P39135), were used which were co-expressed with the selected CAR genes from a separate plasmid. Using 1-liter E. coli cultures with overnight induction by IPTG, 12 soluble CAR proteins were purified using affinity chromatography on a Ni-NTA resin.

[4] = In vitro biotransformation by CARs coupled with aldehyde reductase PP_3370; assay type: biochemical; conditions: Table 12 title: 10 mM 4-hydroxybutyric acid (12 h) in vitro, CARs coupled with PP3370

| Molecule | In vitro conversion efficiency % to: 1,6-hexanediol [1] [%] | In vitro conversion efficiency % to: 6-hydroxyhexanoic acid [1] [%] | In vivo conversion efficiency (%) to: 1,4-butanediol [2] [%] | In vivo conversion efficiency (%) to: 1,6-hexanediol [2] | In vivo conversion efficiency (%) to: 6-hydroxyhexanoic acid [2] | Activity [U/mg protein] 4-hydroxybutyric acid, 5 mM [3] [U/mg protein] | Activity [U/mg protein] adipic acid, 5 mM [3] [U/mg protein] | In vivo conversion efficiency (%) to: 1,4-butanediol [4] [%] |
| --- | --- | --- | --- | --- | --- | --- | --- | --- |
| MAP_1040c: carboxylate reductase (CAR) from M. paratuberculosis ATCC BAA-968 (protein) MSTATHDERLDRRVHELIATDPQFAAAQPDPAITAALEQPGLRLPQIIRTVLDGYADRPALGQRVVEFVTDAKTGRTSAQLLPRFETITYSEVAQRVSALGRALSDDAVHPGDRVCVLGFNSVDYATIDMALGAIGAVSVPLQTSAAISSLQPIVAETEPTLIASSVNQLSDAVQLITGAEQAPTRLVVFDYHPQVDDQREAVQDAAARLSSTGVAVQTLAELLERGKDLPAVAEPPADEDSLALLIYTSGSTGAPKGAMYPQSNVGKMWRRGSKNWFGESAASITLNFMPMSHVMGRSILYGTLGNGGTAYFAARSDLSTLLEDLELVRPTELNFVPRIWETLYGEFQRQVERRLSEAGDAGERRAVEAEVLAEQRQYLLGGRFTFAMTGSAPISPELRNWVESLLEMHLMDGYGSTEAGMVLFDGEIQRPPVIDYKLVDVPDLGYFSTDRPHPRGELLLRTENMFPGYYKRAETTAGVFDEDGYYRTGDVFAEIAPDRLVYVDRRNNVLKLAQGEFVTLAKLEAVFGNSPLIRQIYVYGNSAQPYLLAVVVPTEEALASGDPETLKPKIADSLQQVAKEAGLQSYEVPRDFIIETTPFSLENGLLTGIRKLAWPKLKQHYGERLEQMYADLAAGQANELAELRRNGAQAPVLQTVSRAAGAMLGSAASDLSPDAHFTDLGGDSLSALTFGNLLREIFDVDVPVGVIVSPANDLAAIASYIEAERQGSKRPTFASVHGRDATVVRAADLTLDKFLDAETLAAAPNLPKPATEVRTVLLTGATGFLGRYLALEWLERMDMVDGKVIALVRARSDEEARARLDKTFDSGDPKLLAHYQQLAADHLEVIAGDKGEANLGLGQDVWQRLADTVDVIVDPAALVNHVLPYSELFGPNALGTAELIRLALTSKQKPYTYVSTIGVGDQIEPGKFVENADIRQMSATRAINDSYANGYGNSKWAGEVLLREAHDLCGLPVAVFRCDMILADTTYAGQLNLPDMFTRLMLSLVATGIAPGSFYELDADGNRQRAHYDGLPVEFIAAAISTLGSQITDSDTGFQTYHVMNPYDDGVGLDEYVDWLVDAGYSIERIADYSEWLRRFETSLRALPDRQRQYSLLPLLHNYRTPEKPINGSIAPTDVFRAAVQEAKIGPDKDIPHVSPPVIVKYITDLQLLGLL | 15.4 ± 1.7 | 5.8 ± 0.2 | 81.6 ± 18.3 | 15.4 ± 1.7% | 5.8 ± 0.2% | 0.014 ± 0.006 | 0.053 ± 0.006 | 81.6 ± 18.3 |
| MSMEG_5739: carboxylate reductase (CAR) from M. smegmatis ATCC 700084 (protein) MTSDVHDATDGVTETALDDEQSTRRIAELYATDPEFAAAAPLPAVVDAAHKPGLRLAEILQTLFTGYGDRPALGYRARELATDEGGRTVTRLLPRFDTLTYAQVWSRVQAVAAALRHNFAQPIYPGDAVATIGFASPDYLTLDLVCAYLGLVSVPLQHNAPVSRLAPILAEVEPRILTVSAEYLDLAVESVRDVNSVSQLVVFDHHPEVDDHRDALARAREQLAGKGIAVTTLDAIADEGAGLPAEPIYTADHDQRLAMILYTSGSTGAPKGAMYTEAMVARLWTMSFITGDPTPVINVNFMPLNHLGGRIPISTAVQNGGTSYFVPESDMSTLFEDLALVRPTELGLVPRVADMLYQHHLATVDRLVTQGADELTAEKQAGAELREQVLGGRVITGFVSTAPLAAEMRAFLDITLGAHIVDGYGLTETGAVTRDGVIVRPPVIDYKLIDVPELGYFSTDKPYPRGELLVRSQTLTPGYYKRPEVTASVFDRDGYYHTGDVMAETAPDHLVYVDRRNNVLKLAQGEFVAVANLEAVFSGAALVRQIFVYGNSERSFLLAVVVPTPEALEQYDPAALKAALADSLQRTARDAELQSYEVPADFIVETEPFSAANGLLSGVGKLLRPNLKDRYGQRLEQMYADIAATQANQLRELRRAAATQPVIDTLTQAAATILGTGSEVASDAHFTDLGGDSLSALTLSNLLSDFFGFEVPVGTIVNPATNLAQLAQHIEAQRTAGDRRPSFTTVHGADATEIRASELTLDKFIDAETLRAAPGLPKVTTEPRTVLLSGANGWLGRFLTLQWLERLAPVGGTLITIVRGRDDAAARARLTQAYDTDPELSRRFAELADRHLRVVAGDIGDPNLGLTPEIWHRLAAEVDLVVHPAALVNHVLPYRQLFGPNVVGTAEVIKLALTERIKPVTYLSTVSVAMGIPDFEEDGDIRTVSPVRPLDGGYANGYGNSKWAGEVLLREAHDLCGLPVATFRSDMILAHPRYRGQVNVPDMFTRLLLSLLITGVAPRSFYIGDGERPRAHYPGLTVDFVAEAVTTLGAQQREGYVSYDVMNPHDDGISLDVFVDWLIRAGHPIDRVDDYDDWVRRFETALTALPEKRRAQTVLPLLHAFRAPQAPLRGAPEPTEVFHAAVRTAKVGPGDIPHLDEALIDKYIRDLREFGLI | 57.2 ± 0.6 | 9.1 ± 0.7 | 86.1±5.2 | 53.8±1.4% and 57.2 ± 0.6% | 9.1% and 9.1 ± 0.7% | 0.032 ± 0.024 | 0.054 ± 0.004 | 86.1 ± 5.2 |
| MSMEG_2956: carboxylate reductase (CAR) from M. smegmatis ATCC 700084 (protein) MTIETREDRFNRRIDHLFETDPQFAAARPDEAISAAAADPELRLPAAVKQILAGYADRPALGKRAVEFVTDEEGRTTAKLLPRFDTITYRQLAGRIQAVTNAWHNHPVNAGDRVAILGFTSVDYTTIDIALLELGAVSVPLQTSAPVAQLQPIVAETEPKVIASSVDFLADAVALVESGPAPSRLVVFDYSHEVDDQREAFEAAKGKLAGTGVVVETITDALDRGRSLADAPLYVPDEADPLTLLIYTSGSTGTPKGAMYPESKTATMWQAGSKARWDETLGVMPSITLNFMPMSHVMGRGILCSTLASGGTAYFAARSDLSTFLEDLALVRPTQLNFVPRIWDMLFQEYQSRLDNRRAEGSEDRAEAAVLEEVRTQLLGGRFVSALTGSAPISAEMKSWVEDLLDMHLLEGYGSTEAGAVFIDGQIQRPPVIDYKLVDVPDLGYFATDRPYPRGELLVKSEQMFPGYYKRPEITAEMFDEDGYYRTGDIVAELGPDHLEYLDRRNNVLKLSQGEFVTVSKLEAVFGDSPLVRQIYVYGNSARSYLLAVVVPTEEALSRWDGDELKSRISDSLQDAARAAGLQSYEIPRDFLVETTPFTLENGLLTGIRKLARPKLKAHYGERLEQLYTDLAEGQANELRELRRNGADRPVVETVSRAAVALLGASVTDLRSDAHFTDLGGDSLSALSFSNLLHEIFDVDVPVGVIVSPATDLAGVAAYIEGELRGSKRPTYASVHGRDATEVRARDLALGKFIDAKTLSAAPGLPRSGTEIRTVLLTGATGFLGRYLALEWLERMDLVDGKVICLVRARSDDEARARLDATFDTGDATLLEHYRALAADHLEVIAGDKGEADLGLDHDTWQRLADTVDLIVDPAALVNHVLPYSQMFGPNALGTAELIRIALTTTIKPYVYVSTIGVGQGISPEAFVEDADIREISATRRVDDSYANGYGNSKWAGEVLLREAHDWCGLPVSVFRCDMILADTTYSGQLNLPDMFTRLMLSLVATGIAPGSFYELDADGNRQRAHYDGLPVEFIAEAISTIGSQVTDGFETFHVMNPYDDGIGLDEYVDWLIEAGYPVHRVDDYATWLSRFETALRALPERQRQASLLPLLHNYQQPSPPVCGAMAPTDRFRAAVQDAKIGPDKDIPHVTADVIVKYISNLQMLGLL | 27.7 ± 10.3 | 34.2 ± 9.1 | 59.4 ± 7.3 | 27.7 ± 10.3% | 34.2 ± 9.1% | – | 0.078 ± 0.001 | 59.4 ± 7.3 |
